{"source": "paper PMC5015840", "target": "MBP-OsIAA10 (rice)"}
{"binder": "RDV P2 in RDV-infected rice plants (natural protein) MAYPNDVRNVWDVYNVFRDVPNREHLIRDIRNGLVTVRNLTNMLTNMERDDQLIIAQLSNMMKSLSIGVEKAQNELSKLKTTDADRAAVLAAYQTSVLNIERNTMLLTGYFKQLVLDLTGYVGASVYPILPFMITGDQSMMVDSIKINMKNVFDDKHEQEIVLPIHPACFVSTITEDTSSVVYADGDELYSVHVRHATMTMYVNVLGETVETRQLSMIGDSIVPDDFAPSLLILRFSQDSVGEVFYLSHDNMKKFLGYGLEYTDKYSIFDVTRRVSTTRNKIPDGFCSVDGVPYLDGWFIYQPSGISADSNICAIYNSYVLDTLRYITECEVDTLRSVYDQTSSTAFSKTDVLTSSLLTMQSNISALSAATPQLANDVITFDSTDLLSLGTVLTVSNEFTADDTILSTSLAGHCQVDYSEGSPQDKSMSISVSCDSSQLASSTVHSYSADILGHGLKGDRNMNLMINVPGLMNPQKVTVDYVYSDGYKLNFASVVAPGAPFWINATLQLSVSPSAHNMLSKLTPLDNDACPGLKAQANTPVLVSMTINLDDATPALGGEVIQNCVFKIHHGDDVYSFVTDFDVISYTSTSGTNCLKLISSVDITSQLPSDMVIYVMNGSPDAAFISGDSVNMSSVDWHQSTSQTVGNYVYTTMKAYWNVTSYDVEARPYTTYVPGKVNFTAVEHADVFVDDYNTGVNSYVIVNSRIYYKGTPLYIEVPSGSFIKVSYFTSPLKNPTVDTYNAEISRNSAYLIKANASLDSVAAMLNNISNRIDAMERLMEPTRAQQIAGVVSSIGGVISLGMPLLGAIVVTIGTIISIADPDKQGIDYHSVANAFMSWCQYAAVCRYEYGLLKRGDEKLDVLSFMPKRVVSDFKNKPDVISLPELGESVLRGSSTDYLDTGINIIYNDMQLLGQGKLSDWLNKTVSKVENNAANFFERNLDKSLANKEVLPMHARVEITQTEKIGDVYRTTILYTGINEGSYLGGDVFASRLGDKNILRMNGFESGPGRFKAIVESTTEVGNFRVVDWTVSGMSRYEIYAAAGEVYPSKDPSHADVQLLYESIVRDLTTRDGSFVLKHHDVLLLPGQLDAFEELIIKNASNYQYAFIGSNCSKLCA", "values": [{"measurement": "half-life of MBP-OsIAA10 in the cell-free degradation assay, RDV-infected against mock-inoculated rice extracts", "result": "> 2", "unit": "fold"}]}
